Data on two molecules can be found in US4371523A, “Reducing the aggregation of insulin in solution” (The Regents of the University of California, priority 1980, dated 1983).

Holding throughout (assay type): physicochemical
Series [1] has as its target T1, pork sodium-insulin (Sus scrofa, UniProt P01315).
T1 construct: pork sodium-insulin crystals (U.1000 neutral sodium insulin special pork obtained from Eli Lilly & Company); purchased Eli Lilly & Company U.1000 neutral sodium insulin special pork
Nature of the series: Controlled shaking of Na insulin solutions in test tubes, optical density at 600 nm. How it is done: In vitro testing of single component neutral pork zinc insulin was undertaken with a number of added agents. Solutions at about neutral pH and at acid pH were tested. In addition, some testing was also undertaken with Na insulin. The tests were conducted using plastic tybes (5 ml test tubes, Sarstedt, sealed by plastic caps covered with paraffin) each containing 2 ml of the insulin solutions noted below. The tubes were continuously agitated in a metabolic shaking incubator (Dubnoff E.C.A. Co.) at 60 to 80 r.p.m. and 37° C. for periods up to sixteen days. The sodium insulin solutions were made by dissolving pork sodium-insulin crystals (U.1000 neutral sodium insulin special pork obtained from Eli Lilly & Company) in the same diluting fluid as utilized with the zinc insulin. The solutions were adjusted to neutral or acid pH as indicated above. Final insulin concentration in all solutions was 2 mg/ml (50 U/ml). Insulin solutions with amino acid added were prepared by addition of the dry amino acids (Sigma Company) to the neutral zinc or sodium insulin solutions. Final concentration of the amino acid additives was 7 mg per ml of insulin solution. pH was adjusted, when necessary, to 7.5 for neutral insulin mixtures and to 3.3-3.5 for acid insulin mixtures. The various insulin solutions, both as made up without additives and with additives, were shaken as noted above for up to sixteen days, at which time the solutions were examined with an optical densitometer at a wave length 600 nm. The optical density (OD) of each solution was an indication of the amount of aggregation present after the shaking period. The higher the optical density, the greater the aggregation in that solution.

Series [2] addresses T2, single component neutral pork zinc insulin (Sus scrofa, UniProt P01315).
T2 construct: single component, neutral, pork, zinc-insulin (U.500 regular Iletin II., Eli Lilly & Company); purchased Eli Lilly & Company U.500 regular Iletin II
As to the kind of experiment: Controlled shaking of zinc insulin solutions in test tubes, optical density at 600 nm. The conditions noted are these: for Optical Density ± 1 × SE: zinc insulin 50 U/ml, OD at 600 nm. The method, then:
In vitro testing of single component neutral pork zinc insulin was undertaken with a number of added agents. Solutions at about neutral pH and at acid pH were tested. In addition, some testing was also undertaken with Na insulin.
The tests were conducted using plastic tybes (5 ml test tubes, Sarstedt, sealed by plastic caps covered with paraffin) each containing 2 ml of the insulin solutions noted below. The tubes were continuously agitated in a metabolic shaking incubator (Dubnoff E.C.A. Co.) at 60 to 80 r.p.m. and 37° C. for periods up to sixteen days.
The zinc insulin solutions were prepared by appropriate dilutions of highly concentrated (500 U/ml) single component, neutral, pork, zinc-insulin (U.500 regular Iletin II., Eli Lilly & Company). The unbuffered diluting fluid contained glycerin, 16 mg/ml, and phenol, 2 mg/ml of distilled water (Eli Lilly & Company). […] Final insulin concentration in all solutions was 50 U/ml (2 mg/ml).
Insulin solutions with amino acid added were prepared by addition of the dry amino acids (Sigma Company) to the neutral zinc or sodium insulin solutions. Final concentration of the amino acid additives was 7 mg per ml of insulin solution. pH was adjusted, when necessary, to 7.5 for neutral insulin mixtures and to 3.3-3.5 for acid insulin mixtures.
Several non-amino carboxylic acids, i.e., lactic acid, acetic acid, and citric acid, were added under the same conditions of concentration and pH as described for the amino acids.
The various insulin solutions, both as made up without additives and with additives, were shaken as noted above for up to sixteen days, at which time the solutions were examined with an optical densitometer at a wave length 600 nm. The optical density (OD) of each solution was an indication of the amount of aggregation present after the shaking period. The higher the optical density, the greater the aggregation in that solution.

The nature of series [3]: Controlled shaking of insulin solutions in 2-week minipumps equipped with small diameter catheters. Particulars: shaken 8 days at 37°. The method, then: Minipumps (Alzet Osmotic Minipump No. 2002, Alza Corporation, Palo Alto, Calif.) that release their contents ([…]) at a constant rate ([…]) over a minimum of 14 days were filled with insulin or amino acid-insulin solutions. The minipumps were weighed before and after filling to determine the initial inner fluid volume. A 5 cm vinyl catheter (Iv. soft medical polyvinyl tubing; i.D.=0.023 inch; Bolab Inc. Co., Derry, N.H.) was attached to the tubes' exterior beyond their flanges.
Acid and neutral insulin solutions were prepared with and without glutamic or aspartic acids as described in Example I except insulin concentrations were 120 U/ml (approximately 5 mg/ml). Glutamic and aspartic acids were added to a concentration of 7 mg/ml. The final pH's of the amino acid insulin solutions were 3.3-3.5.
Pumps with attached catheters were placed in a 5 ml plastic vial containing a cotton wad and sufficient saline to immerse and activate the pump. The catheter passed through a 0.5 ml air space at the top of the fluid in the tube, the terminal end being submerged in the saline. The tubes were sealed with a plastic cap covered with parafilm. They were shaken at 37° in a metabolic shaking incubator (Dubnoff E.C.A.) at 80-100 r.p.m. for periods up to 8 days. Pumps were removed from the tubes on the 8th day after shaking; catheters were examined for precipitates by eye and residual contents were removed and centrifuged in microtubes to evaluate the precipitate.

[4] abbreviates: pH 7.4, shaken 16 days at 37° C., higher OD = greater aggregation.

“Also recorded” adds a separate entry of the source.

T2 sequence (P01315 25-54 limits assumed): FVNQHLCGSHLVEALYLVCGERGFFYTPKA
T2 sequence (P01315 88-108 limits assumed): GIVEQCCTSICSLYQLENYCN
T1 sequence (P01315 25-54 limits assumed): as the sequence (P01315 25-54 limits assumed) above

In the case of `N[C@@H](CC(=O)O)C(=O)O` [Aspartic Acid], the “Optical Density ± 1 × SE” value is given as 0.10 ± 0.01 in series [1] (Na insulin 50 U/ml, pH 3.5, shaken at 37° C., OD at 600 nm); 0.084 ± 0.009 in series [2] (pH 3.3-3.5, shaken 16 days at 37° C.); 0.51 ± 0.078 in series [2] (setting [4]). Moreover, the “Protective effect on Na insulin solutions (in words)” value in series [1] (acid pH) was “some protective effect”. Also, the “Protective effect against insulin aggregation (in words)” value in series [2] (agent added to insulin solution at acid pH 3.3-3.5, listed as Aspartic acid) is reported as “more effective than glutamic acid; also recorded: particularly effective in protecting insulin solutions from aggregation”; in series [2] (agent added to insulin solution at acid pH 3.3-3.5, listed as aspartic acid), “prevented the development of any appreciable aggregation throughout the entire experiment”; in series [2] (agent added to insulin solution at neutral pH (about pH 7, pH 7.4)), “do not offer any effective protection; also recorded: the protective effect of the agents are no longer apparent”.
With “Neutral Single Component Zinc Insulin: single component, neutral, pork, zinc-insulin (U.500 regular Iletin II, Eli Lilly & Company), diluted, no agent added”, the “Number of Pumps with Aggregates in Catheter” value in series [3] (pH 3.3, 120 U/ml, of 6 pumps) is listed as 4; in series [3] (pH 7.4, 120 U/ml, of 3 pumps) it was 3. Also, the “Number of Pumps with Precipitates” value in series [3] (pH 3.3, 120 U/ml, of 6 pumps) is 0; in series [3] (pH 7.4, 120 U/ml, of 3 pumps), 3. The “Time at which aggregates appeared” value in series [2] (acidified (pH 2.9-3.3), unbuffered) is recorded as “by the fourth day”. Further, in series [2] (pH 2.9-3.3, unbuffered, through day 16), the “Aggregation of acidified unbuffered insulin solution (in words)” value is recorded as “the aggregation was as great through day 16 as unacidified solutions”. Besides, the “Optical Density ± 1 × SE” value in series [2] (pH 2.9-3.3, shaken 16 days at 37° C.) is on record as 0.181 ± 0.03; in series [2] (setting [4]), 0.603 ± 0.08.
